# Laboratory results: the supplement of paper PMC9112550, “Optimization of the antimicrobial peptide Bac7 by deep mutational scanning” (BMC Biology, 2022)
# Test system: Escherichia coli TOP10
# Test: shrunken log2 fold change of peptide-encoding DNA abundance (4.5 h post-induction vs induction); higher = less antimicrobial activity (less host growth inhibition)
# Details: time post-induction: 4.5 h; library: site-saturation at positions 5, 18, 19, 20
# 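Also: peptides expressed intracellularly from a pBAD plasmid library in pooled LB shake-flask culture, induced with 0.3% L-arabinose, DNA abundance read by NGS, three biological replicates, DESeq2 with apeglm shrinkage.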
row,Sequence,shrunken log2 fold change
1,RRIRARPPRLPRPRPRPHFYPRP,0.107
2,RRIRCRPPRLPRPRPRPIHAPRP,-0.0479
3,RRIRWRPPRLPRPRPRPDALPRP,0.63
4,RRIRMRPPRLPRPRPRPKAWPRP,0.0535
5,RRIRNRPPRLPRPRPRPDVQPRP,-0.13
6,RRIRPRPPRLPRPRPRPVFQPRP,0.315
7,RRIRSRPPRLPRPRPRPSMTPRP,-0.356
8,RRIRGRPPRLPRPRPRPWRYPRP,0.122
9,RRIRKRPPRLPRPRPRPAFAPRP,0.647
10,RRIRWRPPRLPRPRPRPKQPPRP,0.334
11,RRIRERPPRLPRPRPRPIMNPRP,-1.02
12,RRIRRRPPRLPRPRPRPQVPPRP,0.11
13,RRIRERPPRLPRPRPRPEHGPRP,0.174
14,RRIRGRPPRLPRPRPRPCGCPRP,1.09
15,RRIRVRPPRLPRPRPRPFPNPRP,0.038
16,RRIRERPPRLPRPRPRPLIRPRP,-0.0588
17,RRIRKRPPRLPRPRPRPYTSPRP,-0.05
18,RRIRRRPPRLPRPRPRPQQDPRP,0.0793
19,RRIRARPPRLPRPRPRPTDEPRP,0.594
20,RRIRYRPPRLPRPRPRPETPPRP,0.156
21,RRIRNRPPRLPRPRPRPTHEPRP,0.0695
22,RRIRRRPPRLPRPRPRPLRPPRP,1.18

row,Sequence,shrunken log2 fold change
1,RRIRSRPPRLPRPRPRPNHKPRP,-0.738
2,RRIRERPPRLPRPRPRPMTKPRP,-0.0224
3,RRIRNRPPRLPRPRPRPLNGPRP,-0.0206
4,RRIRCRPPRLPRPRPRPIIRPRP,-0.18
5,RRIRWRPPRLPRPRPRPAAPPRP,0.613
6,RRIRARPPRLPRPRPRPKRCPRP,0.079
7,RRIRRRPPRLPRPRPRPWGVPRP,0.405
8,RRIRFRPPRLPRPRPRPHGNPRP,-0.414
9,RRIRQRPPRLPRPRPRPGDIPRP,-0.0112
10,RRIRVRPPRLPRPRPRPPQGPRP,0.203
11,RRIRYRPPRLPRPRPRPHTHPRP,-1.17
12,RRIRDRPPRLPRPRPRPCDYPRP,-0.0874
13,RRIRLRPPRLPRPRPRPVREPRP,0.185
14,RRIRARPPRLPRPRPRPWIDPRP,-0.0113
15,RRIRCRPPRLPRPRPRPGLYPRP,-0.432
16,RRIRSRPPRLPRPRPRPRCKPRP,-0.134
17,RRIRKRPPRLPRPRPRPAMAPRP,0.664
18,RRIRMRPPRLPRPRPRPAWVPRP,0.375
19,RRIRTRPPRLPRPRPRPGEDPRP,0.109
20,RRIRKRPPRLPRPRPRPWRWPRP,0.595
21,RRIRSRPPRLPRPRPRPNYTPRP,-0.479
22,RRIRWRPPRLPRPRPRPCITPRP,-0.0175

row,Sequence,shrunken log2 fold change
1,RRIRIRPPRLPRPRPRPFPGPRP,-0.155
2,RRIRPRPPRLPRPRPRPHLRPRP,0.151
3,RRIRMRPPRLPRPRPRPEHAPRP,2.54
4,RRIRMRPPRLPRPRPRPQEQPRP,0.186
5,RRIRYRPPRLPRPRPRPVWNPRP,-0.136
6,RRIRDRPPRLPRPRPRPDIQPRP,-0.228
7,RRIRHRPPRLPRPRPRPLRVPRP,0.298
8,RRIRNRPPRLPRPRPRPDCGPRP,0.0246
9,RRIRARPPRLPRPRPRPFPYPRP,-0.164
10,RRIRMRPPRLPRPRPRPMNTPRP,0.206
11,RRIRMRPPRLPRPRPRPKDHPRP,0.458
12,RRIRGRPPRLPRPRPRPLHQPRP,0.665
13,RRIRIRPPRLPRPRPRPYPSPRP,-0.00978
14,RRIRERPPRLPRPRPRPSCAPRP,-0.173
15,RRIRPRPPRLPRPRPRPCDWPRP,0.0592
16,RRIRERPPRLPRPRPRPNNRPRP,-0.315
17,RRIRHRPPRLPRPRPRPHIAPRP,-0.0808
18,RRIRERPPRLPRPRPRPWRGPRP,0.166
19,RRIRWRPPRLPRPRPRPDRYPRP,-0.0301
20,RRIRQRPPRLPRPRPRPRVMPRP,-0.139
21,RRIRFRPPRLPRPRPRPYHYPRP,-0.521
22,RRIRTRPPRLPRPRPRPVVQPRP,-0.062

row,Sequence,shrunken log2 fold change
1,RRIRARPPRLPRPRPRPCKRPRP,-0.0822
2,RRIRERPPRLPRPRPRPVKTPRP,0.0285
3,RRIRIRPPRLPRPRPRPEKVPRP,-0.13
4,RRIRMRPPRLPRPRPRPMCIPRP,-0.296
5,RRIRARPPRLPRPRPRPSSFPRP,-0.196
6,RRIRHRPPRLPRPRPRPSADPRP,-0.428
7,RRIRTRPPRLPRPRPRPQCQPRP,-0.0883
8,RRIRHRPPRLPRPRPRPATSPRP,-0.00994
9,RRIRGRPPRLPRPRPRPEEPPRP,0.106
10,RRIRRRPPRLPRPRPRPMACPRP,-0.0812
11,RRIRLRPPRLPRPRPRPFKWPRP,0.00989
12,RRIRVRPPRLPRPRPRPQILPRP,-0.451
13,RRIRPRPPRLPRPRPRPQRVPRP,0.202
14,RRIRVRPPRLPRPRPRPHGCPRP,-0.041
15,RRIRSRPPRLPRPRPRPMEFPRP,0.00489
16,RRIRCRPPRLPRPRPRPIVKPRP,0.0118
17,RRIRDRPPRLPRPRPRPCVFPRP,0.37
18,RRIRWRPPRLPRPRPRPCCDPRP,0.0279
19,RRIRTRPPRLPRPRPRPCLLPRP,-0.413
20,RRIRVRPPRLPRPRPRPVDLPRP,0.0988
21,RRIRGRPPRLPRPRPRPTKVPRP,0.414
22,RRIRDRPPRLPRPRPRPWVVPRP,0.0765

row,Sequence,shrunken log2 fold change
1,RRIRARPPRLPRPRPRPPGSPRP,0.759
2,RRIRRRPPRLPRPRPRPTHPPRP,0.543
3,RRIRERPPRLPRPRPRPQHNPRP,-0.771
4,RRIRDRPPRLPRPRPRPNNYPRP,-0.542
5,RRIRERPPRLPRPRPRPNINPRP,-1.05
6,RRIRRRPPRLPRPRPRPMCTPRP,0.459
7,RRIRLRPPRLPRPRPRPAMMPRP,-0.221
8,RRIRARPPRLPRPRPRPCCCPRP,0.689
9,RRIRCRPPRLPRPRPRPICSPRP,0.0973
10,RRIRERPPRLPRPRPRPADAPRP,0.117
11,RRIRRRPPRLPRPRPRPPDSPRP,0.289
12,RRIRHRPPRLPRPRPRPRWDPRP,0.127
13,RRIRCRPPRLPRPRPRPRFVPRP,0.15
14,RRIRNRPPRLPRPRPRPARFPRP,0.0266
15,RRIRDRPPRLPRPRPRPSHWPRP,-0.178
16,RRIRRRPPRLPRPRPRPDFYPRP,0.159
17,RRIRFRPPRLPRPRPRPCPLPRP,-0.183
18,RRIRARPPRLPRPRPRPFVKPRP,0.0302
19,RRIRHRPPRLPRPRPRPETHPRP,0.0411
20,RRIRARPPRLPRPRPRPYSDPRP,-0.262
21,RRIRVRPPRLPRPRPRPFVLPRP,-0.322
